Experimental data published in patent US7052908B2, “Androgen receptor coactivators” (University of Rochester, priority 1998, dated 2006).

Columns and labels:
[1] = biological target: T1, glucocorticoid receptor (GR) (Homo sapiens, UniProt P04150); test: Steroid receptor transactivation, MMTV-CAT reporter in DU145 cells; assay type: cell-based; conditions: DU145, relative to AR
T1 construct: expressed in transfected cells; host or cells: DU145
T1 sequence (P04150 1-777): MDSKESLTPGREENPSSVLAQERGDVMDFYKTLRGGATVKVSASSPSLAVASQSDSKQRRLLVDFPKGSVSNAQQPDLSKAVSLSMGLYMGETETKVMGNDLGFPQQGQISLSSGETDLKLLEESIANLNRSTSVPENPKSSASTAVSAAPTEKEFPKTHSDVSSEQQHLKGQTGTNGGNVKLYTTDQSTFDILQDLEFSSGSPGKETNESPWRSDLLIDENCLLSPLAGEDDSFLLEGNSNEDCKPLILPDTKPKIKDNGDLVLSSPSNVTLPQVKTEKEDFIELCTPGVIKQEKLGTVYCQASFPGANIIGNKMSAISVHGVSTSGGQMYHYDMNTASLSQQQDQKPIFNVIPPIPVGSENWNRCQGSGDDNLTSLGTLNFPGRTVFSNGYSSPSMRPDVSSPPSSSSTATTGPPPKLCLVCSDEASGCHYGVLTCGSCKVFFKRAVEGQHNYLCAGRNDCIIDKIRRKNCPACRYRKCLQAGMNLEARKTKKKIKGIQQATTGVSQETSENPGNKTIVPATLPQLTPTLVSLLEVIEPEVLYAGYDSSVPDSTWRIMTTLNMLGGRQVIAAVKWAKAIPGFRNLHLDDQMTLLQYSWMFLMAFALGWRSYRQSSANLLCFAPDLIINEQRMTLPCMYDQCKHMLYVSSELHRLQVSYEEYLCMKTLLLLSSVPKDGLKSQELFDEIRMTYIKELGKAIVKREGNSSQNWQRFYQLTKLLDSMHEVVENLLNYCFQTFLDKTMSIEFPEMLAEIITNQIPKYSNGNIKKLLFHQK

[2] = biological target: T2, progesterone receptor (PR) (Homo sapiens, UniProt P06401); test: as above; assay type: cell-based; conditions: DU145, relative to AR
T2 construct: expressed in transfected cells; host or cells: DU145
T2 sequence (P06401 1-933): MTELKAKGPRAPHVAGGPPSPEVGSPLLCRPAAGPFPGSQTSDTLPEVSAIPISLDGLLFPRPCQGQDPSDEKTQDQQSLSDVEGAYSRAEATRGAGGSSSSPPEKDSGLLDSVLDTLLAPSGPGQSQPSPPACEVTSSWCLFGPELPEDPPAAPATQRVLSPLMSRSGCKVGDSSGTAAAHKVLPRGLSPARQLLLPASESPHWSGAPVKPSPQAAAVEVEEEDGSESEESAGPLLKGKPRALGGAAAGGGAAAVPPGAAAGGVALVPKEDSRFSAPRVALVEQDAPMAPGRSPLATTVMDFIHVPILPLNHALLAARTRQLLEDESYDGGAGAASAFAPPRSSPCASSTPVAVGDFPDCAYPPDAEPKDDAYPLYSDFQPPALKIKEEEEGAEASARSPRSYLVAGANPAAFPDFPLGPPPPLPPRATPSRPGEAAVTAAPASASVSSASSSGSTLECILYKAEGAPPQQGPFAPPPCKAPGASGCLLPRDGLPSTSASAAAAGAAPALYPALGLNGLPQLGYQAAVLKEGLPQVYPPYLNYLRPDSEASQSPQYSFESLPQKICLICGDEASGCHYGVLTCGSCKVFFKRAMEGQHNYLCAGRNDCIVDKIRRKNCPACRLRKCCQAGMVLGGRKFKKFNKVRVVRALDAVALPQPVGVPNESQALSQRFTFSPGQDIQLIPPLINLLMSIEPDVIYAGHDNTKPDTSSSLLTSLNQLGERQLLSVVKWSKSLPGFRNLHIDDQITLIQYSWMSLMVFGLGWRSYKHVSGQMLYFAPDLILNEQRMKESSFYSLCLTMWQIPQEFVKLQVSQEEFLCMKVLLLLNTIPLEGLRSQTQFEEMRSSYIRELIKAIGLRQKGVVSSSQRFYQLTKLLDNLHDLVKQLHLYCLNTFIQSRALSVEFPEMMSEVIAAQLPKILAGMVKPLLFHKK

- enhancement of GR transcriptional activation by ARA55 [1]: to a lesser degree
- enhancement of PR transcriptional activation by ARA55 [2]: to a lesser degree
B1: ARA55: androgen receptor coactivator, 444 aa, SEQ ID NO:4, 91% homology with mouse hic5 (protein)
chain: MPRSGAPKERPAEPLTPPPSYGHQPTGQSGESSGASGDKDHLYSTVCKPRSPKPAAPAAPPFSSSSGVLGTGLCELDRLLQELNATQFNITDEIMSQFPSSKVASGEQKEDQSEDKKRPSLPSSPSPGLPKASATSATLELDRLMASLPDFRVQNHLPASGPTQPPVVSSTNEGSPSPPEPTAKGSLDTMLGLLQSDLSRRGVPTQAKGLCGSCNKPIAGQVVTALGRAWHPEHFVCGGCSTALGGSSFFEKDGAPFCPECYFERFSPRCGFCNQPIRHKMVTALGTHWHPEHFCCVSCGEPFGDEGFHEREGRPYCRRDFLQLFAPRCQGCQGPILDNYISALSLLWHPDCFVCRECFAPFSGGSFFEHEGRPLCENHFHARRGSLCPTCGLPVTGRCVSALGRRFHPDHFACTFCLRPLTKGSFQERAGKPYCQPCFLKLFG
modifications: Homo sapien
